Source: PMC6774396 (Frontiers in Immunology, 2019)

What was measured:
[1] = system: ΔM-N L-selectin-GFP/RFP in THP-1 cells; test: Phos-tag Western blot of L-selectin serine phosphorylation; type: cell-based, human; details: 100 nM PMA, 15 min; phos-tag gel
ERM = details: biochemically and in cells; cited from earlier work
From the text: The cytoplasmic tail of L-s ...

THP-1 cells = test: Antibody-mediated clustering (AMC) of L-selectin-GFP/RFP, FLIM/FRET; type: cell-based, human; details: DREG56 plus secondary antibody
From the text: (A) Schematic representation of the cleavage site, transmembrane domain (TMD), and cytoplasmic tail of human L-selectin. Red underlined region of the cleavage site denotes the amino acids that are deleted in ΔM-N L-selectin. […] Red arrow points to the position of the cut site of the L-selectin cleavage domain. (B) Cells expressing matched levels of L-selectin-GFP/RFP in the following forms: WT, ΔM-N, SSAA, ΔM-N^SSAA, and R357A were subjected to AMC using Alexa Fluor 647-conjugated DREG56 or isotype-matched control, followed by goat anti-mouse secondary antibody (see Materials and Methods for more detail). Cells were plated onto poly-L-lysine-coated coverslips and prepared for FLIM/FRET analysis (see materials and methods). FLIM was used to measure the FRET efficiency between the GFP/RFP donor/acceptor pairs as a direct function of cytoplasmic tail clustering […]. At least 45 individual cells were analyzed over 3 independent clustering assays. (C) Representative images are shown for each cell line. The lifetime of fluorescence (Lftm) is expressed in a pseudocolour scale from red (low lifetime with a very high probability of interaction) to blue (high lifetime with a very low probability of interaction). […] Cells were lysed directly in protein loading buffer (containing the reducing agent, dithiothreitol) and resolved onto standard (lower panel) or phos-tag (upper panel) polyacrylamide gels. Antibodies to GFP and RFP were used to, respectively, probe ΔM-N and ΔM-N^SSAA on Western blots. […] Statistics: One-Way ANOVA Tukey's multiple comparison test. **p ≤ 0.01; ***p ≤ 0.001; ****p ≤ 0.0001.
THP-1 cells were adjusted the night before AMC to a density of 0.5 ×10^6 cells per mL. On the same day, 13 mm diameter glass coverslips (thickness “1”) were placed into the base of a 24 well dish, spotted with 100 μL of poly-L-lysine (PLL) to immobilize according to manufacturer's instruction. On the day of the assay, THP-1 cells were counted and adjusted to a density of 1 ×10^6 per mL in 500 μL containing antibody labeling buffer (RPMI culture medium containing FcR block [Miltenyi Biotec]). Cells were labeled with 2 μg per mL DREG56 for 30 min at 4°C, followed by washing (by centrifugation at 300 g and resuspension) in ice cold culture media to remove excess unbound antibody and then incubated back in ice cold labeling buffer containing secondary antibody conjugated to Alexa Fluor […] (Thermo Fisher) for a further 30 min at 4°C. Cells were then washed twice in ice cold neat RPMI and resuspended to 100 μL of neat ice cold RPMI before 80 μL of the cell suspension was seeded onto 13 mm diameter glass coverslips (thickness = “1”), which were pre-coated with PLL-coated the night before. The seeded cells were placed into a humidified cell culture incubator at 37°C and 5% CO2 for 10 min to drive clustering. Adhered cells were flooded in excess 4% paraformaldehyde and fixed for 15 min at room temperature. Fixed coverslips were washed 3 times in PBS and then treated in 10 mg/mL of Sodium Borohydride dissolved in phosphate buffered saline for 10 min at room temperature (to eliminate autofluorescence and enhance signal to noise ratios). Coverslips were subsequently washed in PBS to remove sodium borohydride and mounted using DAKO mounting medium.
FLIM measurement of FRET was performed with a multiphoton microscope system as described previously ([8], [23]). A Nikon TE2000E inverted microscope, combined with an in-house scanner and Chameleon Ti:Sapphire ultrafast pulsed multiphoton laser (Coherent Inc.), was used for excitation of GFP (at 890 nm). Fluorescence lifetime imaging capability was provided by time-correlated, single-photon counting electronics (SPC 700; Becker & Hickl). A 40 × objective (NA 1.3) was used throughout (CFI60 Plan Fluor; Nikon), and data were acquired at 500 ± 20 nm through a bandpass filter (35–5040; Coherent Inc.). […]

calmodulin = details: transmigrating pseudopods; ref previously published (no number given at b28; b24 cites ref 8); cited from earlier work
[2] = system: THP-1 cells over TNF-α-activated HUVEC; test: Pseudopod protrusion scoring in TEM under flow; type: cell-based, human
Experimental: (A) The number of protrusions formed over this period was scored as: zero, one, two, or >2. (B) The percentages of cells bearing these protrusions were scored at specific time points: 6 min (blue bars), 15 min (green bars), or 25 min (red bars). Supplementary Videos 2, 3, 4 provide examples of cells producing a range of protrusions as TEM proceeds. Data represent SEM of 3 fields of view per flow experiment, conducted on three separate occasions, and at least 180 cells analyzed per group. Values of the vertical lines indicate the differences in protrusion number (specifically “zero” and “two”) corresponding to each of the cell lines, for which statistical significance is shown in Table 1.
All flow experiments were performed using a 35 mm diameter Glycotech parallel plate flow chamber. Perfusion experiments were performed at 1.5 dyn/cm^2 using a Harvard Apparatus 2000 PHD syringe pump. Perfusion media consisted of: RPMI supplemented with L-glutamine, 10% FCS, 1% penicillin/streptomycin, 50 μM β-mercaptoethanol, and 25 mM HEPES. Human Umbilical Vein Endothelial Cells (HUVEC–Lonza) were seeded onto 35 mm diameter glass coverslips (no. 1 thickness; VWR) that were pre-coated with 10 μg/mL fibronectin (37°C for at least 1 h). Before each perfusion assay, HUVEC were stimulated overnight (16 h) with 10 ng/mL carrier-free recombinant human TNF-α (R&D Systems). Each perfusion assay was performed by injecting a bolus of cells for 6 min, followed by just perfusion media (without cells) for the […]. THP-1 cells were perfused at a density of 0.5 ×10^6 cells per mL. THP-1 cells treated with 10 μM TAPI-0 required a preincubation time of 10 min at 37°C before perfusion over TNF-α-activated HUVEC. Note that 10 μM TAPI-0 was also supplemented in the perfusate. Stills were acquired once every 10 seconds using 10 × objective lens.

## CCCCCCCCCCCCCC(=O)O[C@@H]1[C@@H](C)[C@@]2(O)[C@@H](C=C(CO)C[C@]3(O)C(=O)C(C)=C[C@@H]23)[C@@H]2C(C)(C)[C@]12OC(C)=O [PMA, phorbol myristate acetate]
[1]
  serine phosphorylation of L-selectin: serine phosphorylation was detected only when cells were robustly stimulated with the phorbol ester, PMA

B1: R357A: ERM-binding mutant of L-selectin, arginine 357 mutated to alanine (protein)
chain: WTYHYSEKPMNWQRARRFCRDNYTDLVAIQNKAEIEYLEKTLPFSRSYYWIGIRKIGGIWTWVGTNKSLTEEAENWGDGEPNNKKNKEDCVEIYIKRNKDAGKWNDDACHKLKAALCYTASCQPWSCSGHGECVEIINNYTCNCDVGYYGPQCQFVIQCEPLEAPELGTMDCTHPLGNFSFSSQCAFSCSEGTNLTGIEETTCGPFGNWSSPEPTCQVIQCEPLSAPDLGIMNCSHPLASFSFTSACTFICSEGTELIGKKKTICESSGIWSNPSPICQKLDKSFSMIKEGDYNPLFIPVAVMVTAFSGLAFIIWLARALKKGKKSKRSMNDPY
modifications: left off: eGFP (donor copy) or mCherry (acceptor copy, called RFP), C-terminal, kept
ERM
  L-selectin/ERM interaction: block L-selectin/ERM interaction
THP-1 cells
  change in FRET efficiency on AMC or versus comparator (in words): lacked any significant increase in FRET efficiency
THP-1 cells; 10 min at 37°C, GFP/RFP pair, at least 45 cells, 3 independent assays
  FRET efficiency after AMC: 2.47%

B2: S367A: L-selectin with Ser^367 mutated to alanine, GFP-tagged, expressed in THP-1 cells (protein, UniProt P14151 39-372, looked up, variant S367A)
L-selectin: WTYHYSEKPMNWQRARRFCRDNYTDLVAIQNKAEIEYLEKTLPFSRSYYWIGIRKIGGIWTWVGTNKSLTEEAENWGDGEPNNKKNKEDCVEIYIKRNKDAGKWNDDACHKLKAALCYTASCQPWSCSGHGECVEIINNYTCNCDVGYYGPQCQFVIQCEPLEAPELGTMDCTHPLGNFSFSSQCAFSCSEGTNLTGIEETTCGPFGNWSSPEPTCQVIQCEPLSAPDLGIMNCSHPLASFSFTSACTFICSEGTELIGKKKTICESSGIWSNPSPICQKLDKSFSMIKEGDYNPLFIPVAVMVTAFSGLAFIIWLARRLKKGKKSKRAMNDPY
modifications: C-terminal GFP tag
calmodulin
  interaction of calmodulin with L-selectin: significantly reduced interaction of calmodulin
[2]; 6, 15 and 25 min of flow over TNF-α-activated HUVEC
  protrusive activity profile in TEM (in words): possessed the fewest protrusions over the recorded period, differing significantly from WT and S364A L-selectin-expressing cell lines
[2]; 15 min time point, mean of 3 fields of view per flow experiment, three occasions, at least 180 cells per group, significance ** S367A p ≤ 0.01 (Tukey), % printed
  cells with 2 protrusions: 13.7%
[2]; 15 min time point, mean of 3 fields of view per flow experiment, three occasions, at least 180 cells per group, significance *** S367A p ≤ 0.001, ** SSAA p ≤ 0.01 (Tukey), % printed
  cells with 0 protrusions: 34.4%
